Measured values taken from US20210024652A1.

Target: plasma membrane calcium ATPase PMCA4b, P23634
Test: cell-based or functional assay

plasma membrane calcium ATPase PMCA4b, P23634, sequence (P23634 whole entry): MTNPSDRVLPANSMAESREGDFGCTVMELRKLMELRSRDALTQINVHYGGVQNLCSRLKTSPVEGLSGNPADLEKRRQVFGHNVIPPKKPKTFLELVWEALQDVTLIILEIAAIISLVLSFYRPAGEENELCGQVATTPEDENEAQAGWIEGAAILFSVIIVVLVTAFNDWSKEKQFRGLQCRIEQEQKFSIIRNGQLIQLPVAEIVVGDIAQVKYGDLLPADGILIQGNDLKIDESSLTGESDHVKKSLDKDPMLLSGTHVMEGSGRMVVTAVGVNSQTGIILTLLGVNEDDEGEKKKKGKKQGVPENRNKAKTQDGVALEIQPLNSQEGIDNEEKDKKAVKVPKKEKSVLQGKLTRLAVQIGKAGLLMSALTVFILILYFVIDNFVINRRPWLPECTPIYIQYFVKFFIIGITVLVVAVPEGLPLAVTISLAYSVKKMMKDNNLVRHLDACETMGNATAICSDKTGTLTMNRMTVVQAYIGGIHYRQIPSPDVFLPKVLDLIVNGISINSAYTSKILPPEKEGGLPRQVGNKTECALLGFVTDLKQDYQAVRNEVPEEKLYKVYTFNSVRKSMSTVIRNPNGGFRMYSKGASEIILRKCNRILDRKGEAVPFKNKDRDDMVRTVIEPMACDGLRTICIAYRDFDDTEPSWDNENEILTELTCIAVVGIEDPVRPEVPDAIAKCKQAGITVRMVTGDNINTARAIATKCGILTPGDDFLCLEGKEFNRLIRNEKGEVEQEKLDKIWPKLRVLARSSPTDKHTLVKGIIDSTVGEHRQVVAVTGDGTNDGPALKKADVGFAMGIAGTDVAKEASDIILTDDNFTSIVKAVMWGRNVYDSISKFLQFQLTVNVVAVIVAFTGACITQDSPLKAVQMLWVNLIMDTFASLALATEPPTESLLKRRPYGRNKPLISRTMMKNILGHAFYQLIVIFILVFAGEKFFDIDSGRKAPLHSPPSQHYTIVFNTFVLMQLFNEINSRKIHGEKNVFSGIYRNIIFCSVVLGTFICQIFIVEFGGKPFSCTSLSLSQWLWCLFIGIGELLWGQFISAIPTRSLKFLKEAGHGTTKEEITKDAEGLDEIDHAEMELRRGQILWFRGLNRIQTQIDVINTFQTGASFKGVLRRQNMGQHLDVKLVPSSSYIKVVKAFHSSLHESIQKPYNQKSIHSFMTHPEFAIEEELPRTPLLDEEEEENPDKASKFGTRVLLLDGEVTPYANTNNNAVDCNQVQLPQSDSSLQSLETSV

decrease in RNLS dependent ERK phosphorylation in MiaPaCa2 cells after PMCA4b siRNA, western blot: 70%
Binder: CIRFVSIDNKKRNIESSEIG [RNLS peptide RP-220]
